Positions count from the first letter of the chain named. Names may count otherwise.
T1: human CD25 on cells (human, UniProt P01589 22-272)
T1 sequence (looked up): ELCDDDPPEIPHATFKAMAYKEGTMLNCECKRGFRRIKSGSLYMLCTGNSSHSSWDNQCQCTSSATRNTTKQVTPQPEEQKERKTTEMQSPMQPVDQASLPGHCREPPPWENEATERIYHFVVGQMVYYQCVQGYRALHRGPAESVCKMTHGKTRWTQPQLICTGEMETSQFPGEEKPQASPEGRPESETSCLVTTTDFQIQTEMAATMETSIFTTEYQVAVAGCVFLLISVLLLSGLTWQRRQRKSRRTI

T2: CD25 on Kit225/K6 cells (human, UniProt P01589 22-272)
T2 sequence (looked up): T1 sequence (looked up)

T3: human CD25 (human, UniProt P01589 22-213, limits assumed)
T3 construct: Recombinant soluble human CD25, coated on plates (ELISA) or injected over captured antibody (BIAcore); also called hCD25; IL2-R alpha
T3 sequence (looked up): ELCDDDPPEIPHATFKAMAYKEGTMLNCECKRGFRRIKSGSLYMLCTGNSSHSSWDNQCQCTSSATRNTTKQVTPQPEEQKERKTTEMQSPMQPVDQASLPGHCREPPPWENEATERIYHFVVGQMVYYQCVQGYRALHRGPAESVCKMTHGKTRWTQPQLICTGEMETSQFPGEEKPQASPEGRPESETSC

T4: human CD25 (recombinant soluble) (human, UniProt P01589 22-240)
T4 construct: extracellular domain; bought protein; also called IL2-Rα; recombinant human IL2-Rα
T4 sequence (looked up): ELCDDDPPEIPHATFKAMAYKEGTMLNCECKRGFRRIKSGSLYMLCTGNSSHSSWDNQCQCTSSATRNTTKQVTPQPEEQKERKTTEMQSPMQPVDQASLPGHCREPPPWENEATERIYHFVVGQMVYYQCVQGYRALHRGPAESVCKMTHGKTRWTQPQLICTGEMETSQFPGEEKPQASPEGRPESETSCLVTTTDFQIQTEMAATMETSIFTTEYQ

B1: Variant C28 (antibody, V domains shown)
VH: QVQLVQSGAEVKKPGSSVKVSCKASGYTFTSYRMHWVRQAPGQGLEWMGYINPSSGYTEYNQKFKDKATITADESTNTAYMELSSLRSEDTAVYYCARGGGVFDYWGQGTLVTVSS
VL: DIQMTQSPSTLSASVGDRVTITCSASSKISYMHWYQQKPGKAPKLLIYTTSDLASGVPARFSGSGSGTEFTLTISSLQPDDFATYYCHQRSTYPLTFGQGTKVEVK
notes: Isotype as printed: G2M3.QL
B2: Variant C41 (antibody, name in Kabat numbering, V domains shown)
VH: B1 VH with N52S, S54R
VL: B1 VL with K28S, D52N
notes: Isotype as printed: G2M3.QL
B3: Variant C35 (antibody, name in Kabat numbering, V domains shown)
VH: B1 VH with N52K, S55R
VL: B1 VL with K28S, D52E
notes: Isotype as printed: G2M3.QL
B4: Variant C34 (antibody, V domains shown)
VH: B1 VH with N52K, S55R
VL: B1 VL
notes: Isotype as printed: G2M3.QL
B5: NST-RN (antibody, IgG1, V domains shown)
VH: B1 VH with M48I, S55T
VL: B1 VL with K28R, D52N
B6: Y32A (antibody, IgG1, name in Kabat numbering, V domains shown)
VH: B1 VH with M48I, S55T
VL: B1 VL with K28S, Y31A, D52N
B7: S31A (antibody, IgG1, V domains shown)
VH: B1 VH with M48I, S55T
VL: B1 VL with K28S, S30A, D52N
B8: RKT-SE (antibody, IgG1, name in Kabat numbering, V domains shown)
VH: B1 VH with M48I, N52R, S54K, S55T
VL: B1 VL with K28S, D52E
B9: SRK-SE (antibody, IgG1, name in Kabat numbering, V domains shown)
VH: B1 VH with M48I, N52S, S54R, S55K
VL: B1 VL with K28S, D52E
notes: IgG1/kappa; also called S52R53K54 VH with S29E53 VL
B10: RNR-SE (antibody, IgG1, name in Kabat numbering, V domains shown)
VH: B1 VH with M48I, N52R, S54N, S55R
VL: B1 VL with K28S, D52E
notes: IgG1/kappa
B11: T50A (antibody, IgG1, V domains shown)
VH: B1 VH with M48I, S55T
VL: B1 VL with K28S, T49A, D52N
B12: VRR-SE (antibody, IgG1, name in Kabat numbering, V domains shown)
VH: B1 VH with M48I, N52V, S54R, S55R
VL: B1 VL with K28S, D52E
notes: IgG1/kappa; also called VRRE-SE
B13: Variant C39 (antibody, V domains shown)
VH: B1 VH with N52S, S54R, S55K
VL: B1 VL
B14: Variant C27 (antibody, name in Kabat numbering, V domains shown)
VH: B1 VH
VL: B1 VL with K28S, D52N
notes: Isotype as printed: G2M3.QL
B15: Variant C29 (antibody, name in Kabat numbering, V domains shown)
VH: B1 VH
VL: B1 VL with K28S, D52E
notes: Isotype as printed: G2M3.QL
B16: QRKFH (antibody, IgG1, name in Kabat numbering, V domains shown)
VH: B1 VH with M48I, N52Q, S54R, S55K, Y57F, E59H
VL: B1 VL with K28S, D52N
notes: soluble IgG1 from the VH library; Kabat numbers; also called VH variant QRKFH
B17: RKGFN (antibody, IgG1, name in Kabat numbering, V domains shown)
VH: B1 VH with M48I, N52R, S54K, S55G, Y57F, E59N
VL: B1 VL with K28S, D52N
notes: soluble IgG1 from the VH library; Kabat numbers; also called VH variant RKGFN
B18: RRKFE (antibody, IgG1, name in Kabat numbering, V domains shown)
VH: B1 VH with M48I, N52R, S54R, S55K, Y57F
VL: B1 VL with K28S, D52N
notes: soluble IgG1 from the VH library; Kabat numbers; also called VH variant RRKFE
B19: SNKYL (antibody, IgG1, name in Kabat numbering, V domains shown)
VH: B1 VH with M48I, N52S, S54N, S55K, E59L
VL: B1 VL with K28S, D52N
notes: soluble IgG1 from the VH library; Kabat numbers; also called VH variant SNKYL
B20: RRGFE (antibody, IgG1, name in Kabat numbering, V domains shown)
VH: B1 VH with M48I, N52R, S54R, S55G, Y57F
VL: B1 VL with K28S, D52N
notes: soluble IgG1 from the VH library; Kabat numbers; also called VH variant RRGFE
B21: RKGFE (antibody, IgG1, name in Kabat numbering, V domains shown)
VH: B1 VH with M48I, N52R, S54K, S55G, Y57F
VL: B1 VL with K28S, D52N
notes: soluble IgG1 from the VH library; Kabat numbers; also called VH variant RKGFE
B22: Variant C19 (antibody, name in Kabat numbering, V domains shown)
VH: B1 VH with M48I, N52S, S54R, S55K
VL: B1 VL with K28S, D52E
notes: Isotype as printed: G1 fa; also called SRK-SE
B23: Variant C26 (antibody, name in Kabat numbering, V domains shown)
VH: B1 VH with M48I, N52K, S55R, E74K
VL: B1 VL with K28S, D52E
notes: Isotype as printed: G1 fa; E to K read as E73K
B24: Variant C16 (antibody, name in Kabat numbering, V domains shown)
VH: B1 VH with M48I, N52R, S54N, S55R
VL: B1 VL with K28S, D52E
notes: Isotype as printed: G1 fa; also called RNR-SE
B25: Variant C15 (antibody, name in Kabat numbering, V domains shown)
VH: B1 VH with M48I, N52V, S54R, S55R
VL: B1 VL with K28S, D52E
notes: Isotype as printed: G1 fa; also called VRR-SE
B26: Variant C37 (antibody, name in Kabat numbering, V domains shown)
VH: B1 VH with N52K
VL: B1 VL with K28S, D52E
notes: Isotype as printed: G2M3.QL
B27: Variant C43 (antibody, name in Kabat numbering, V domains shown)
VH: B1 VH with N52S, S54R
VL: B1 VL with K28S, D52E
notes: Isotype as printed: G2M3.QL

target: T1, human CD25 on cells; experiment: cell-based or functional assay

| Kit225 (fold improvement in inhibition of IL2-induced Kit225 proliferation) [fold] | PBMC (fold improvement in inhibition of IL2-induced PHA blast proliferation) [fold] | Binder |
| --- | --- | --- |
| 2.8 | 5.8 | B1 |
| 2.5 | – | B2 |
| 3 | 7.2 | B3 |
| 3.1 | 6.4 | B4 |

target: T2, CD25 on Kit225/K6 cells; experiment: cell-based or functional assay

| Functional improvement (inhibition of proliferation of Kit225/K6 cells; IC50 normalized to wild type daclizumab) [fold] | Binder |
| --- | --- |
| 1.5 | B5 |
| 0.4 | B6 |
| 0.7 | B7 |
| 2 | B8 |
| 3.5 | B9 |
| 2.4 | B10 |
| 0.8 | B11 |
| 1.2 | B12 |

target: T5, cynomolgous monkey CD25 (cynomolgous monkey); experiment: SPR (BIAcore), cynomolgous CD25
T5 construct: also called cmCD25; cm

| Kd [nM] | Binder |
| --- | --- |
| 0.031 | B13 |
| 0.049 | B1 |
| 0.263 | B14 |
| 0.098 | B15 |
| 0.188 | B3 |
| 0.088 | B4 |

target: T3, human CD25; experiment: SPR (BIAcore)

| Kd [nM] | Binder |
| --- | --- |
| 0.054 | B1 |
| 0.034 | B3 |
| 0.021 | B4 |

target: T5, cynomolgous monkey CD25; experiment: SPR (BIAcore), cynomolgous CD25; remark: another data set of the same source

| Kd [nM] | Binder |
| --- | --- |
| 0.031 | B13 |
| 0.263 | B14 |

target: T4, human CD25 (recombinant soluble); experiment: SPR (BIAcore), antibody captured, CD25 injected

| Affinity improvement (KD normalized to wild type daclizumab) [fold] | Kd [nM] | koff [s⁻¹] | kon [M⁻¹ s⁻¹] | Binder |
| --- | --- | --- | --- | --- |
| 31 | 0.016 | 2.18e-05 | 1.38e+06 | B9 |
| 23 | 0.022 | 3.34e-05 | 1.54e+06 | B10 |
| 17 | 0.029 | 3.29e-05 | 1.24e+06 | B12 |

target: T4, human CD25 (recombinant soluble); experiment: competitive ELISA with biotinylated daclizumab on CD25
Procedure: Wells of 96-well ELISA plates (Nunc-Immuno MaxiSorp plates, Nalge Nunc, Rochester, N.Y.) were coated with 100 μL of 0.2 μg/mL CD25 (Pepro Tech Inc., Rocky Hill, N.J.) in 0.2 M sodium carbonate-bicarbonate buffer (pH 9.4, Pierce, Rockford, Ill.) overnight at 4° C. After washing with Wash Buffer, wells were blocked with 200 μL of Superblock Blocking Buffer (Pierce, Rockford, Ill.) for 30 min and then washed. […] The plate was then washed with washing buffer three times. After washing, 100 μL of 1 μg/mL HRP-conjugated Streptavidin (Pierce) diluted in ELISA buffer was added to each well. After 30 minutes of incubation at room temperature, plates were washed and bound antibodies were detected by addition of ABTS substrate (Kirkegaard & Perry Laboratories, Gaithersburg, Md.). […] PRISM (GraphPad, San Diego) and reported as IC₅₀ wild type/IC₅₀ mutant (fold improvement over wild type control).

| fold affinity over the parental antibody [fold] | Binder |
| --- | --- |
| ~10 | B16 |
| ~10 | B17 |
| ~10 | B18 |
| ~10 | B19 |
| ~10 | B20 |
| ~10 | B21 |

target: T3, human CD25; experiment: SPR (BIAcore); remark: another data set of the same source

| Kd [nM] | Binder |
| --- | --- |
| 0.016 | B22 |
| 0.121 | B23 |
| 0.022 | B24 |
| 0.029 | B25 |

target: T3, human CD25; experiment: competition ELISA vs biotinylated daclizumab, fold over wild type

| ELISA fold improvement [fold] | Binder |
| --- | --- |
| 1.6 | B1 |
| 4.1 | B26 |
| 6.1 | B2 |
| 7 | B3 |
| 7.8 | B4 |
| 4.2 | B27 |
